Laboratory results: patent US7744887B2, “Human antibodies interacting with HIV gp41” (priority 2004, dated 2010)

Tests used:
[1] = system: HIV-1 (envelope from strain HXB2); test: HIV Reporter Particle (HIVRP) assay; type: cell-based; settings: envelope from strain HXB2, purified scFvs
[2] = system: CCR5-tropic strain BaL; type: cell-based, HIV-1
[3] = system: CXCR4-tropic HIV-1 strain HXB2; type: cell-based; settings: for effect on HIV-HXB2 replication: single cycle infectivity assay, FIG. 9
[4] = system: HIV particles pseudotyped with the surface protein of the Vesicular Stomatitis Virus (VSV-G); type: cell-based
[5] = target: T1, 5-Helix (Human immunodeficiency virus type 1 group M subtype B, UniProt P04578, C598G/DEL583-596/DEL601-623/N624G); settings: Biacore, peptide 5-Helix
Description: (§1) Affinity of D5 IgG for the hydrophobic pocket of HR1—The affinity of D5 IgG for various peptides was next determined by surface plasmon resonance (Biacore).

[6] = target: IQN17-2Pro; test: Surface plasmon resonance (Biacore), IQN17-2Pro; type: binding, HIV-1; settings: peptide IQN17-2Pro
Description: as §1

[7] = target: IZN17-L565M; test: Surface plasmon resonance (Biacore), IZN17-L565M; type: binding, HIV-1; settings: peptide IZN17-L565M
Description: as §1

[8] = target: IZN17-G572D; test: Surface plasmon resonance (Biacore), IZN17-G572D; type: binding, HIV-1; settings: peptide IZN17-G572D
Description: as §1

[9] = target: IZN17; test: Surface plasmon resonance (Biacore), IZN17; type: binding, HIV-1; settings: peptide IZN17
Description: as §1

[10] = target: interaction of biotinylated IZN36 with C34-HA (Human immunodeficiency virus type 1 group M subtype B, UniProt P04578); settings: ALPHASCREEN, FIG. 15
[11] = target: T1, 5-Helix; settings: ALPHASCREEN, FIG. 10
[12] = target: IZN36 (Human immunodeficiency virus type 1 group M subtype B, UniProt P04578); settings: ALPHASCREEN, FIG. 10
[13] = system: IQN17; test: ALPHASCREEN D5 IgG/IQN17 binding assay; design: species or system HIV-1
[14] = target: IZN17-Q567R; test: Surface plasmon resonance (Biacore), IZN17-Q567R; type: binding, HIV-1; settings: peptide IZN17-Q567R
Description: as §1

[15] = system: dual tropic strain (CCR5 and CXCR4) HIV 89.6; type: cell-based, HIV-1
[16] = system: HIV strain MN-1; type: cell-based, HIV-1; settings: MN-1, single cycle infectivity assay

B1: D5 scFv: human scFv from phage display, SEQ ID NO:2, VH and VL joined by (G4S)3 linker; binds gp41 HR1 hydrophobic pocket (protein)
scFv: QVQLVQSGAEVRKPGASVKVSCKASGDTFSSYAISWVRQAPGQGLEWMGGIIPIFGTANYAQKFQGRVTITADESTSTAYMELSSLRSEDTAIYYCARDNPTLLGSDYWGKGTLVTVSSGGGGSGGGGSGGGGSDIQMTQSPSTLSASIGDRVTITCRASEGIYHWLAWYQQKPGKAPKLLIYKASSLASGAPSRFSGSGSGTDFTLTISSLQPDDFATYYCQQYSNYPLTFGGGTKLEIK
modifications: Homo sapien
ability to prevent HIV-1 entry [1]: capable of inhibiting HIV-1 entry
effect on HIV-BaL replication ([2]; single cycle infectivity assay): inhibited replication of HIV-BaL
effect on HIV-HXB2 replication [3]: inhibited HIV—HXB2 replication
prevention of infection by VSV-G pseudotyped particles [4]: Neither D5 nor X5 scFvs prevented infection

B2: B11 scFv: human scFv from phage display, SEQ ID NO:8, VH and VL joined by (G4S)3 linker; binds gp41 HR1 (protein)
scFv: QVQLVQSGAEVKKPGSSVKVSCKASGGTFSSYAISWVRQAPGQGLEWMGGIIPLFDTSNYAQNFQGRITITADKSTSTAYMELSSLRFEDTAIYYCARDNPLLLAMDVWGKGTTVTVSSGGGGSGGGGSGGGGSDIQMTQSPSTLSASIGDRVTITCRASEGIYHWLAWYQQKPGKAPKLLIYKASSLASGAPSRFSGSGSGTDFTLTISSLQPDDFATYYCQQYSNYPLTFGGGTKLEIK
modifications: Homo sapien
ability to prevent HIV-1 entry [1]: capable of inhibiting HIV-1 entry
effect on HIV-HXB2 replication [3]: displayed anti-viral properties against the HIV—HXB2 strain

B3: D5 IgG: full length human IgG4/kappa carrying D5 VH (SEQ ID NO:4) and VL (SEQ ID NO:6) (antibody, V domains shown)
VH: QVQLVQSGAEVRKPGASVKVSCKASGDTFSSYAISWVRQAPGQGLEWMGGIIPIFGTANYAQKFQGRVTITADESTSTAYMELSSLRSEDTAIYYCARDNPTLLGSDYWGKGTLVTVSS
VL: DIQMTQSPSTLSASIGDRVTITCRASEGIYHWLAWYQQKPGKAPKLLIYKASSLASGAPSRFSGSGSGTDFTLTISSLQPDDFATYYCQQYSNYPLTFGGGTKLEIK
modifications: human IgG4/kappa constant regions; Homo sapien
Off [5]: 1.0e−4 1/S
On [5]: 390000 M⁻¹ s⁻¹
Kd [6]: 0.24 µM
Off [6]: 2.2e−3 1/S
On [6]: 9000 M⁻¹ s⁻¹
Kd [7]: 0.0003 µM
Off [7]: 8.9e−4 1/S
On [7]: 3e+06 M⁻¹ s⁻¹
Kd [8]: 0.55 µM
Off [8]: 3.0e−3 1/S
On [8]: 5500 M⁻¹ s⁻¹
fold more sensitive than HXB2 ([2]; BaL versus HXB2): approximately 3 fold
Kd [9]: 0.0001 µM
Off [9]: 5.9e−4 1/S
On [9]: 6.1e+06 M⁻¹ s⁻¹
IC50 [4]: Not active
effect on the interaction of C34-HA with IZN36 [10]: prevented the interaction of C34-HA with IZN36
interaction with biotinylated 5-Helix [11]: clear interaction
interaction with biotinylated IZN36 [12]: clear interaction
interaction with biotinylated IQN17 [13]: evident interaction
Kd [14]: 0.0015 µM
Off [14]: 1.2e−3 1/S
On [14]: 800000 M⁻¹ s⁻¹
fold less susceptible to neutralization than HXB2 ([15]; 89.6 versus HXB2): approximately 6 fold

B4: B11 IgG: full length human IgG1/kappa carrying B11 VH (SEQ ID NO:10) and VL (SEQ ID NO:12) (antibody, V domains shown)
VH: QVQLVQSGAEVKKPGSSVKVSCKASGGTFSSYAISWVRQAPGQGLEWMGGIIPLFDTSNYAQNFQGRITITADKSTSTAYMELSSLRFEDTAIYYCARDNPLLLAMDVWGKGTTVTVSS
VL: B3 VL
modifications: human IgG1/kappa constant regions; Homo sapien
IC50 ([2]; HIV-BaL, single cycle infectivity assay): 0.073 µM
IC50 ([3]; HIV-HXB2, single cycle infectivity assay): 0.29 µM
IC50 [16]: 0.244 µM
IC50 ([15]; HIV 89.6, single cycle infectivity assay): 0.943 µM
